Patent US20240287172A1 (SCIRHOM, published 2024)
Numbering of substitutions follows the chain as printed.

T1: hiR2-FL-E617D-T7 (human, UniProt Q6PJF5 1-856)
T1 sequence: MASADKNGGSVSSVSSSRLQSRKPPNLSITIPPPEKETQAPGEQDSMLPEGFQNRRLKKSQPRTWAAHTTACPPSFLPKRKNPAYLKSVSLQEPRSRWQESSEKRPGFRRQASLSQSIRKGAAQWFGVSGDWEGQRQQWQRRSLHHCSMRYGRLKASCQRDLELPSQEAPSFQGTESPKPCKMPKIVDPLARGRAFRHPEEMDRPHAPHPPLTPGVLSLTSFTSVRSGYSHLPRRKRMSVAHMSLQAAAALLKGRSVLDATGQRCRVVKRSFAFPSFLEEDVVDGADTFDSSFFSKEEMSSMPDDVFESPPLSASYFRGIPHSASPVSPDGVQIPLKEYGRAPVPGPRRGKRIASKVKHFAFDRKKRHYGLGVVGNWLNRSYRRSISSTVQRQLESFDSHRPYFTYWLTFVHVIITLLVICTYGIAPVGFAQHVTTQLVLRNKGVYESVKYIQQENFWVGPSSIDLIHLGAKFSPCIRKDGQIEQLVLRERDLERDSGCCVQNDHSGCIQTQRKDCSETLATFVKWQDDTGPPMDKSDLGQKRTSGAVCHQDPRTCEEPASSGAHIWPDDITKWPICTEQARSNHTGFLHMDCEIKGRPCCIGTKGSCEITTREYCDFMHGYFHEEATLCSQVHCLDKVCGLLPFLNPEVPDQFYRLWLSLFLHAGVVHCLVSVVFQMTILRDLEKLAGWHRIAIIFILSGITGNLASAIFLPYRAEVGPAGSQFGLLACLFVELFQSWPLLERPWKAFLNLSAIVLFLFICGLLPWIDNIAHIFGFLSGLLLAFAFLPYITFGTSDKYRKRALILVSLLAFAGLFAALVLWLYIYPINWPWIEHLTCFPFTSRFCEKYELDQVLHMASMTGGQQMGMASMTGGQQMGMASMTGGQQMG

B1: antibody 48 (antibody, V domains shown)
VH: QVQLQQSGTELVRPGTSVKVSCKASGYAFTNYLIEWVKQRPGQGLEWIGVINPGSGFTKYNEKFKGKATLTADKSSSTVYMHLSSLTSEDSAVYFCARGLYRAMDYWGQGTSVTVSS
VL: DIQMTQSPASQSASLGESVTITCLASQTIATWLAWYQQKPGKSPQLLIYGATTLADGVPSRFSGGGSGTKFSFKISSLQAEDFVSYYCQQLYSTPYTFGGGTKLEIK
notes: mouse IgG, kappa light chain; also called clone #48; purified antibody 48
B2: antibody 50 (antibody, V domains shown)
VH: B1 VH with T9A, T16A, T30S, V79A, H82Q
VL: B1 VL with A30G, G50A, T52A, T53S, S85N, L91I
notes: mouse IgG, kappa light chain; also called clone #50; purified antibody 50

Biological target: T1, hiR2-FL-E617D-T7
Experiment: FACS, MEF-DKO cells, 3 µg/ml
How it was run: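 Binding read by flow cytometry after a PE goat anti-mouse IgG F(ab′)2 secondary (1:100, on ice, 1 h, dark). Before that, immortalized MEF-DKO lines carrying single-mutant hiR2-FL-T7 constructs were incubated 1 h on ice with 3 μg/ml antibody or FACS buffer alone.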

Binder	loss of binding vs wild type
B1	≥ 30%
B2	≥ 30%
